Reference: article PMC11784312 (Journal of Virology, 2024)

Assays:
[1] = biological target: SD008 HA expressed from pcDNA 3.1-SD008-HA (Influenza A virus …, UniProt A0A2D0Z8H0, strain); test: immunostaining of cells or tissue; conditions: one partner purified
[2] = biological target: T1, hemagglutinin of A/chicken/Guangdong/SD008/2017 (H7N9) (Influenza A virus …, UniProt A0A2D0Z8H0, strain); test: ELISA; conditions: both partners purified
[3] = biological target: T1, hemagglutinin of …; test: flow cytometry on cells; conditions: one partner purified

Binder	binding result [1]	binding result [2]	binding result [3]
2D7 neutralizing antibody (antibody, V domains shown, whole murine IgG) VH: VQLQESGPGLVKPSQSLSLTCTVTGYSITSDYTWNWIRQFPGNKLEWMGYISYSGSTSYNPSLKSRMSITRDTSKNQFLLQLNSVTTADTATYYCTRDGPYWHIDVWGAGTTVTVSS VL: DIQMNQSPSSLSASLGDTITITCHASQTINIWLSWYQLKPGNIPKLLIYKASNLHTGVPSRFSGSGSGTGFTLTISSLQPEDIASYYCQQGQSFPYTFGGGTKLEIK	binds	binds	
1H9 neutralizing antibody (antibody, V domains shown, also called nAb 1H9; source: mouse hybridoma, ascites of BALB/c mice, purified (protein G agarose)) VH: VQLQESGPGLVKPSQSLSLTCTVTGYSITSDYTWNWIRQFPGNKLEWMGYITYSDTTSYNPSLKSRISITRDTSKNQFFLQLNSVTTEDTATYYCARSDGWYGFAYWGQGTLVTVSA VL: DIQMNQSPSSLSASLGDTITITCHASQNINVWLSWYQQKPGNIPKLLIYKAFDLHTGVPSRFSGSGSGTGFTLTISSLQPEDIATYYCQQGQTYPFTFGGGTKLEIK	binds		binds
